Assays:
[1] = target: UBE2L3 (Homo sapiens) (UniProt P68036); test: SPR; details: cited from earlier work
[2] = target: MuRF1 in fusion with the binding domain of GAL4 (pBridge, MCS I) (rat) (UniProt Q91Z63); test: two-hybrid; yeast three-hybrid; pBridge::MuRF1/MHCIIa (MuRF1 GAL4 binding-domain fusion with MHCIIa residues 1–255 co-expressed from MCSII), preys in pGADT7; growth on -LTH + Aureobasidin A + 3-AT followed over 21 days
[3] = target: MuRF1 in fusion with the binding domain of GAL4 (pBridge, MCS I) (rat) (UniProt Q91Z63); test: two-hybrid; Matchmaker Gold yeast two-hybrid; MuRF1 alone as GAL4 binding-domain fusion, preys in pGADT7; growth of diploid clones on -LTH + Aureobasidin A + 3-AT followed over 21 days

Substance | Kd [1] | percentage of clones grown on selective media [2] | percentage of clones grown on selective media [3]
MuRF1 (from UniProt Q969Q1) | 50 nM | – | –
UBE2E1 in pGADT7 (GAL4 activation domain fusion) (from UniProt P52482 1-193) (enzyme) | – | 80% | 80%

— publication PMC8392593
